In series [1] the target is T1, Human Spindlin1 50-262 (human, UniProt Q9Y657 50-262). Nature of the series: ITC. A general note: Isothermal titration calorimetry measures the heat released or taken up as one component is titrated into another.
Series [2] deals with Spindlin1_(50-262) bound to DOCpep(1-3) (human | , UniProt Q9Y657 50-262; Q9BUA3 188-281). Nature of the series: ITC.
The target in series [3] is T2, Spindlin1_(50-262) bound to DOCpep3 (human | , UniProt Q9Y657 50-262; Q9BUA3 256-281).
T2 chain 1: […]
T2 chain 2: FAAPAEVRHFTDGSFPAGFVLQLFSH
Briefly: ITC.

The series “SEC” deals with the molecule itself. Briefly: SEC. (Size exclusion chromatography separates by hydrodynamic size, large species first.)
The series “native gel or EMSA” deals with the molecule itself. Nature of the series: native gel or EMSA.
A further series deals with Spindlin1 W151A (human, UniProt Q9Y657 50-262, W151A). Nature of the series: ITC.
Sequence of Spindlin1 W151A (Q9Y657 50-262 W151A): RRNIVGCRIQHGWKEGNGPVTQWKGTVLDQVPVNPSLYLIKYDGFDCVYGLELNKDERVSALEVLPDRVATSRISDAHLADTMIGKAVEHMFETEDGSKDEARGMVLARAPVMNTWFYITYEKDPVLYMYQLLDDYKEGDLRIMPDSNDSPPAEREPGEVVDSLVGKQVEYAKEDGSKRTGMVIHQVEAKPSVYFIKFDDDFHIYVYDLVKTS
In the next series the target is Spindlin1 F141A (human, UniProt Q9Y657 50-262, F141A). Nature of the series: ITC.
Sequence of Spindlin1 F141A (Q9Y657 50-262 F141A): as the sequence (Q9Y657 50-262 W151A) above, with F92A, A102W counted along it
In a further series the target is Spindlin1 Y177A (human, UniProt Q9Y657 50-262, Y177A). Nature of the series: ITC.
Sequence of Spindlin1 Y177A (Q9Y657 50-262 Y177A): as the sequence (Q9Y657 50-262 W151A) above, with A102W, Y128A counted along it
The target in series [4] is T1, Human Spindlin1 50-262. Briefly: thermal shift assay.

Where no end group is shown, it is not given here. [ ]: non-standard residue; d: D form. Lys(Me3) = C[N+](C)(C)CCCC[C@H](N)C(=O)O; Lys(Me2) = CN(C)CCCC[C@H](N)C(=O)O; Lys(Me) = CNCCCC[C@H](N)C(=O)O

B1: SPIN•DOC 184-240, the whole K/R-rich region (domain or fragment)
chain: NPSLPKRSRPRGLRPLELPAVPATEPGNKKPRGQRWKEPPGEEPVRKKRGRPMTKNL
Usually Kd stands for the free concentration of one partner at which half of the binding sites on the other are occupied at equilibrium, for simple one-to-one binding. Low readings indicate higher affinity, high ones lower affinity. One may read the stoichiometry N as a count of units in the complex or per binding partner. Consider B1, for which, in the series with Human Spindlin1 50-262 [1], binding was put at a Kd of 7.6 µM and the “stoichiometry N” value was 0.5.

LPKRSRPRG [DOCpep1, SPIN•DOC 187-195 peptide] came in with a Kd with Human Spindlin1 50-262 [1] of 78 µM.

For LPARSRPRG [DOCpep1 K189A peptide], in the series with Human Spindlin1 50-262 [1], the “fold reduction of binding against wild-type DOCpep1” value came to 9 fold.

With LPKRSAPRG [DOCpep1 R192A peptide], in the series with Human Spindlin1 50-262 [1], the “fold reduction of binding against wild-type DOCpep1” value came out at 11 fold.

Turning to ART[Lys(Me3)]QTAR[Lys(Me2)]STGGKA [histone H3 1-15 K4me3K9me2 peptide], the “fold decrease of binding affinity in the presence of DOCpep(1-3)” value in series [2] is roughly 4.5 fold. Moreover, in series [3], the binding result was “binds”.

As for ART[Lys(Me3)]QTAR[Lys(Me3)]STGGKA [histone H3 1-15 K4me3K9me3 peptide], the binding result in series [3] is “binds”.

B2: full-length SPIN•DOC with N-terminal 6xHis tag, co-expressed with Spindlin1 (natural protein, UniProt Q9BUA3 1-381, looked up)
chain: MALKAEGAALDCFEVTLKCEEGEDEEEAMVVAVIPRPEPMLRVTQQEKTPPPRPSPLEAGSDGCEEPKQQVSWEQEFLVGSSPGGSGRALCMVCGAEIRAPSADTARSHILEQHPHTLDLSPSEKSNILEAWSEGVALLQDVRAEQPSPPNSDSGQDAHPDPDANPDAARMPAEIVVLLDSEDNPSLPKRSRPRGLRPLELPAVPATEPGNKKPRGQRWKEPPGEEPVRKKRGRPMTKNLDPDPEPPSPDSPTETFAAPAEVRHFTDGSFPAGFVLQLFSHTQLRGPDSKDSPKDREVAEGGLPRAESPSPAPPPGLRGTLDLQVIRVRMEEPPAVSLLQDWSRHPQGTKRVGAGDTSDWPTVLSESSTTVAGKPEKGNGV
Turning to B2, the “stoichiometry N” value in the series “SEC” came out at 2.

B3: Flag-SPIN•DOC wild type (natural protein, UniProt Q9BUA3 1-381, looked up)
chain: B2 chain
In the case of B3, in the series “native gel or EMSA”, the “stoichiometry N” value stood at 2.

B4: GFP-SPIN•DOC wild type (natural protein, UniProt Q9BUA3 1-381, looked up)
chain: B2 chain
For B4, the “stoichiometry N” value in the series “native gel or EMSA” was 2.

Consider VRKKRGRPMTKN (peptide, UniProt Q9BUA3 228-239, looked up) [DOCpep2, SPIN•DOC 228-239 peptide], for which the binding result with Spindlin1 W151A, with Spindlin1 F141A and with Spindlin1 Y177A was “binds” each time. The same molecule had an equilibrium dissociation constant (Kd) in the series with Human Spindlin1 50-262 [1] of 31 µM.

On to ART[Lys(Me3)]QTAR[Lys(Me)]STGGKA [histone H3 1-15 K4me3K9me1 peptide], for which the “fold decrease of binding affinity in the presence of DOCpep(1-3)” value in series [2] was roughly 17 fold. The binding result in series [3] was “binds”.

B5: SPIN•DOC 188-281, DOCpep(1-3) (domain or fragment)
chain: PKRSRPRGLRPLELPAVPATEPGNKKPRGQRWKEPPGEEPVRKKRGRPMTKNLDPDPEPPSPDSPTETFAAPAEVRHFTDGSFPAGFVLQLFSH
For B5, the binding result with Human Spindlin1 50-262 [4] is listed as “binds”.

(Values after publication doi:10.1101/2021.03.07.432812 (bioRxiv, 2021).)
